The chains are these.
B1: scFv; the commonest letter at each place (parent)
chain 1: EVKLDETGGGLVQPGRPMKLSCVASGFTFSDYWMNWVRQSPEKGLEWVAQIRNKPYNYETYYSDSVKGRFTISRDDSKSSVYLQMNNLRVEDMGIYYCTGSYYGMDYWGQGTSVTVS
chain 2: DVVMTQTPLSLPVSLGDQASISCRSSQSLVHSNGNTYLRWYLQKPGQSPKVLIYKVSNRFSGVPDRFSGSGSGTDFTLKISRVEAEDLGVYFCSQSTHVPWTFGGGTKLEIK

A value given as a limit tells only on which side of the number the result lay.

In the series “fluorescein” the parent is B1. As to the kind of experiment: Kd (Tite-Seq). The following applies: with fluorescein; format: scFv 4-4-20, heavy + light.
In series [1] the parent is B1. The series is described as follows: yeast surface expression (ratio to wild type); higher = more expressed. The conditions noted are these: format: scFv 4-4-20, heavy + light.

In the case of chain 1 M105R, the Kd in the series with fluorescein turned out to be 0.021 µM. The yeast surface expression in series [1] turned out to be 1.
For chain 1 M105L, in that order: 0.00519 µM and 0.924.
On to chain 1 M105E, for which the Kd with fluorescein turned out to be 4.15 µM. The yeast surface expression in series [1] amounted to 1.01.
For chain 1 M105G, in that order: not below 10 µM and 0.761.
Regarding chain 1 M105D, in the series with fluorescein, the Kd was not below 10 µM. The yeast surface expression in series [1] amounted to 0.695.
In the case of chain 1 M105V, the Kd with fluorescein came to 4.25 µM. Moreover, the yeast surface expression in series [1] came out at 0.993.
On to chain 1 M105K, for which, in the series with fluorescein, the Kd was 0.00546 µM. Besides, the yeast surface expression in series [1] is 1.02.
Regarding chain 1 M105Q, in the series with fluorescein, the Kd was found to be 0.0423 µM. For the same variant, in series [1], the yeast surface expression came to 1.23.
For chain 1 M105C, in that order: 4.48 µM and 0.861.
For chain 1 M105I, the Kd with fluorescein amounted to 0.0335 µM. In series [1], the yeast surface expression turned out to be 0.914.
For chain 1 M105H, in that order: not below 10 µM and 1.06.
Regarding chain 1 M105F, in the series with fluorescein, the Kd worked out at 0.945 µM. In series [1], the yeast surface expression was 0.745.
Regarding chain 1 M105T, in the series with fluorescein, the Kd was not below 10 µM. Moreover, the yeast surface expression in series [1] came to 1.
For the variant chain 1 M34E N35H, the dissociation constant Kd with fluorescein is 0.195 µM. Also, in series [1], the yeast surface expression was 0.4.
For chain 1 M105H W108Q, in the series with fluorescein, the dissociation constant (Kd) was not below 10 µM. In addition, in series [1], the yeast surface expression is 0.294.
For chain 1 M105H W108D, in that order: not below 10 µM and 0.353.
For chain 1 M105N G109Q, in that order: not below 10 µM and 0.235.
For the variant chain 1 M105N G109E, in the series with fluorescein, the dissociation constant (Kd) is not below 10 µM. Also, the yeast surface expression in series [1] came to 0.266.
For chain 1 M105N G109A, in that order: not below 10 µM and 0.467.
Turning to chain 1 M105N G109C, the Kd with fluorescein was not below 10 µM. The yeast surface expression in series [1] turned out to be 0.123.
In the case of chain 1 M105G W108N, the Kd with fluorescein was not below 10 µM. For the same variant, in series [1], the yeast surface expression stood at 0.415.
chain 1 M105C W108M: the Kd in the series with fluorescein amounted to 0.000389 µM. For the same variant, the yeast surface expression in series [1] turned out to be 0.656.
Turning to chain 1 M105D D106I, the Kd with fluorescein was not below 10 µM. Further, the yeast surface expression in series [1] was 0.844.
For chain 1 M105D D106C, in that order: not below 10 µM and 0.616.
For chain 1 M105D D106G, in that order: not below 10 µM and 0.347.
For chain 1 M105D D106T, in that order: not below 10 µM and 0.588.
With chain 1 M34R V37W, in the series with fluorescein, the Kd was 0.0353 µM. The yeast surface expression in series [1] was 3.88.
For chain 1 M34R V37Q, in that order: 0.205 µM and 0.276.
For chain 1 M105V Y107A, in that order: not below 10 µM and 0.758.
On to chain 1 M105V Y107H, for which the Kd with fluorescein was not below 10 µM. Further, the yeast surface expression in series [1] is 0.957.
For chain 1 M105S D106N, in that order: not below 10 µM and 0.443.
For chain 1 M105S D106E, in that order: not below 10 µM and 1.32.
For chain 1 M105S D106S, in that order: 6.96 µM and 0.843.
For the variant chain 1 M34V W36N, the Kd in the series with fluorescein is not below 10 µM. In addition, the yeast surface expression in series [1] was 0.502.
On to chain 1 M34Q W36E, for which, in the series with fluorescein, the Kd is not below 10 µM. In addition, the yeast surface expression in series [1] is 2.19.
Turning to chain 1 M105N D106P, the Kd in the series with fluorescein was not below 10 µM. The yeast surface expression in series [1] was 0.2.
For the variant chain 1 M105H Y107G, the Kd with fluorescein is not below 10 µM. In addition, in series [1], the yeast surface expression worked out at 0.412.
On to chain 1 M34A W36T, for which the Kd with fluorescein is not below 10 µM. In series [1], the yeast surface expression was determined as 0.544.
For chain 1 M34A W36M, in that order: not below 10 µM and 0.249.
Take chain 1 M34Y N35R: the Kd with fluorescein was not below 10 µM. For the same variant, the yeast surface expression in series [1] was 0.505.
Turning to chain 1 M34Y N35V, the Kd with fluorescein is not below 10 µM. Besides, the yeast surface expression in series [1] was 0.434.
Take chain 1 M105P G109I: the equilibrium dissociation constant (Kd) in the series with fluorescein is not below 10 µM. The yeast surface expression in series [1] was 0.208.
As to chain 1 M105P G109T, the Kd with fluorescein was not below 10 µM. Also, the yeast surface expression in series [1] worked out at 0.291.
As for chain 1 M34T W36Y, the equilibrium dissociation constant (Kd) with fluorescein was not below 10 µM. Moreover, the yeast surface expression in series [1] was 0.649.
For chain 1 M34T W36L, in that order: not below 10 µM and 0.455.
Take chain 1 M34P W36N: in the series with fluorescein, the dissociation constant Kd was not below 10 µM. The yeast surface expression in series [1] stood at 0.506.
For chain 1 M34P W36L, in that order: not below 10 µM and 0.216.
For chain 1 M105R G109W, in that order: not below 10 µM and 0.232.
For chain 1 M105R G109T, in that order: not below 10 µM and 0.344.
Turning to chain 1 M34Q V37T, in the series with fluorescein, the Kd was not below 10 µM. In series [1], the yeast surface expression is 0.629.
For chain 1 M34S N35H, in that order: not below 10 µM and 0.536.
For chain 1 M105C D106E, in that order: not below 10 µM and 0.902.
For chain 1 M105C D106S, in that order: 3.37 µM and 0.728.
Consider chain 1 M105T Y107D, for which the Kd with fluorescein is not below 10 µM. Also, in series [1], the yeast surface expression was found to be 0.467.
For chain 1 M105T Y107C, in that order: not below 10 µM and 0.675.
For chain 1 M105T Y107N, in that order: not below 10 µM and 0.778.
For chain 1 M105T Y107R, in that order: not below 10 µM and 0.527.
As to chain 1 M105P Y107H, the Kd with fluorescein is not below 10 µM. Besides, in series [1], the yeast surface expression came to 0.635.

(Values after the FLAb antibody collection (doi:10.7554/elife.23156).)
